Target: T1, human receptor activator of nuclear factor-κB (RANK) (human, UniProt Q9Y6Q6 30-212)
T1 sequence (looked up): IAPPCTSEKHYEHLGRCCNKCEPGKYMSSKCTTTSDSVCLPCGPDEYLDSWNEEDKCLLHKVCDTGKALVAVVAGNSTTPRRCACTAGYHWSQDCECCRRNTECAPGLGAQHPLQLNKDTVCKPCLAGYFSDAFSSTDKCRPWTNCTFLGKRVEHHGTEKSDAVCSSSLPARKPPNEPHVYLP
Test: SPR

B1: human receptor activator of nuclear factor-κB ligand (RANKL) (ligand, UniProt O14788 140-317, looked up)
chain: IRAEKAMVDGSWLDLAKRSKLEAQPFAHLTINATDIPSGSHKVSLSSWYHDRGWAKISNMTFSNGKLIVNQDGFYYLYANICFRHHETSGDLATEYLQLMVYVTKTSIKIPSSHTLMKGGSTKYWSGNSEFHFYSINVGGFFKLRSGEEISIEVSNPSLLDPDQDATYFGAFKVRDID
B1: binds.

From paper PMC8484898 (Bioactive Materials, 2021)
